The results in this text go back to US20100260668A1 (published 2010).

The labels stand for the following.
B1: DVD474 (bispecific antibody, human IgG1, kappa)
heavy: not shown
light: DIQMTQSPSSLSASVGDRVTITCRASQVIRRSLAWYQQKPGKAPKLLIYAASNLASGVPSRFSGSGSGTDFTLTISSLQPEDFATYYCQQSNTSPLTFGQGTKVEIKRTVAAPSVFIFPPDIQMTQSPSSLSASVGDRVTITCRASQDVSTAVAWYQQKPGKAPKLLIYSASFLYSGVPSRFSGSGSGTDFTLTISSLQPEDFATTYYCQQSYTGTVTFGQGTKVEIKRTVAAPSVFIFPPSDEQLKSGTASVVCLLNNFYPREAKVQWKVDNALQSGNSQESVTEQDSKDSTYSLSSTLTLSKADYEKHKVYACEVTHQGLSSPVTKSFNRGEC
notes: Outer AB071 (VEGF), inner AB015 (DLL4); HC linker long, LC linker long; also called DVD-Ig DVD474
B2: DVD486 (bispecific antibody, human IgG1, kappa)
heavy: not shown
light: DIQMTQSPSSLSASVGDRVTITCRASQVIRRSLAWYQQKPGKAPKLLIYAASNLASGVPSRFSGSGSGTDFTLTISSLQPEDFATYYCQQSNTSPLTFGQGTKVEIKRTVAAPSVFIFPPDIQMTQSPSSLSASVGDRVTITCRASQDVSTAVAWYQQKPGKAPKLLIYSASFLYSGVPSRFSGSGSGTDFTLTISSLQPEDFATTYYCQQSYTGTVTFGQGTKVEIKRTVAAPSVFIFPPSDEQLKSGTASVVCLLNNFYPREAKVQWKVDNALQSGNSQESVTEQDSKDSTYSLSSTLTLSKADYEKHKVYACEVTHQGLSSPVTKSFNRGEC
notes: Outer AB071 (VEGF), inner AB015 (DLL4); HC linker short, LC linker long; also called DVD-Ig DVD486
B3: DVD498 (bispecific antibody, human IgG1, kappa)
heavy: not shown
light: DIQMTQSPSSLSASVGDRVTITCRASQVIRRSLAWYQQKPGKAPKLLIYAASNLASGVPSRFSGSGSGTDFTLTISSLQPEDFATYYCQQSNTSPLTFGQGTKVEIKRTVAAPSVFIFPPDIQMTQSSSYLSVSLGGRVTITCKASDHINNWLAWYQQKPGNAPRLLISGATSLETGVPSRFSGSGSGKDYTLSITSLQTEDVATYYCQQYWSIPLTFGAGTKLELKRTVAAPSVFIFPPSDEQLKSGTASVVCLLNNFYPREAKVQWKVDNALQSGNSQESVTEQDSKDSTYSLSSTLTLSKADYEKHKVYACEVTHQGLSSPVTKSFNRGEC
notes: Outer AB071 (VEGF), inner AB072 (DLL4); HC linker long, LC linker long; also called DVD-Ig DVD498
B4: DVD516 (bispecific antibody, human IgG1, lambda)
heavy: not shown
light: DIQMTQSPSSLSASVGDRVTITCRASQVIRRSLAWYQQKPGKAPKLLIYAASNLASGVPSRFSGSGSGTDFTLTISSLQPEDFATYYCQQSNTSPLTFGQGTKVEIKRTVAAPQAVVTQESALTTSPGETVTLTCRSSTGAVTTSNYANWVQEKPDHLFTGLIGGTNNRAPGVPARFSGSLIGDKAALTITGAQTEDEAIYFCALWYSNHWVFGGGTKLTVLGQPKAAPSVTLFPPSSEELQANKATLVCLISDFYPGAVTVAWKADSSPVKAGVETTTPSKQSNNKYAASSYLSLTPEQWKSHRSYSCQVTHEGSTVEKTVAPTECS
notes: Outer AB071 (VEGF), inner AB073 (DLL4); HC linker short, LC linker short; also called DVD-Ig DVD516
B5: DVD528 (bispecific antibody, human IgG1, lambda)
heavy: not shown
light: DIQMTQSPSSLSASVGDRVTITCRASQVIRRSLAWYQQKPGKAPKLLIYAASNLASGVPSRFSGSGSGTDFTLTISSLQPEDFATYYCQQSNTSPLTFGQGTKVEIKRTVAAPQAVVTQESALTTSPGETVTLTCRSSTGAVTTSNYANWVQEKPDHLFTGLIGGTNNRAPGVPARFSGSLIGDKAALTITGAQTEDEAIYFCALWYSNHWVFGGGTKLTVLGQPKAAPSVTLFPPSSEELQANKATLVCLISDFYPGAVTVAWKADSSPVKAGVETTTPSKQSNNKYAASSYLSLTPEQWKSHRSYSCQVTHEGSTVEKTVAPTECS
notes: Outer AB071 (VEGF), inner AB073 (DLL4); HC linker long, LC linker short; also called DVD-Ig DVD528
B6: DVD522 (bispecific antibody, human IgG1, kappa, lambda, L234A L235A)
heavy: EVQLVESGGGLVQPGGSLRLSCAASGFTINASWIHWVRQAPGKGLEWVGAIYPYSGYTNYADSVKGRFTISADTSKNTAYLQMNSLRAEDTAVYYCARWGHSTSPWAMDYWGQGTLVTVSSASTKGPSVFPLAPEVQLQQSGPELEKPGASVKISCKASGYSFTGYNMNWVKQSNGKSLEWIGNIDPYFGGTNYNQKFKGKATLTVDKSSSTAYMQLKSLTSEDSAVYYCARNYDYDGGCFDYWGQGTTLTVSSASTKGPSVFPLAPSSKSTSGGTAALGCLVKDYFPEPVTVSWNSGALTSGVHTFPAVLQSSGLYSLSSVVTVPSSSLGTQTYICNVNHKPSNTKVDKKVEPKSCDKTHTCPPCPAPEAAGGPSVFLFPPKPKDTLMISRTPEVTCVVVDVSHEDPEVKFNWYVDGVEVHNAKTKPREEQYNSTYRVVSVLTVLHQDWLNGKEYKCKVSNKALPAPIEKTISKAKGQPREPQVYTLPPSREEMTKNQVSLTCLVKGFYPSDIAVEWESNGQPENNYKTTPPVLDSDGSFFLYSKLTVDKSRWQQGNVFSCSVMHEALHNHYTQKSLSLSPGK
light: DIQMTQSPSSLSASVGDRVTITCRASQVIRRSLAWYQQKPGKAPKLLIYAASNLASGVPSRFSGSGSGTDFTLTISSLQPEDFATYYCQQSNTSPLTFGQGTKVEIKRTVAAPSVFIFPPQAVVTQESALTTSPGETVTLTCRSSTGAVTTSNYANWVQEKPDHLFTGLIGGTNNRAPGVPARFSGSLIGDKAALTITGAQTEDEAIYFCALWYSNHWVFGGGTKLTVLGQPKAAPSVTLFPPSSEELQANKATLVCLISDFYPGAVTVAWKADSSPVKAGVETTTPSKQSNNKYAASSYLSLTPEQWKSHRSYSCQVTHEGSTVEKTVAPTECS
notes: Outer AB071 (VEGF), inner AB073 (DLL4); HC linker long, LC linker long; also called DVD-Ig DVD522
B7: DVD534 (bispecific antibody, human IgG1, kappa, lambda, L234A L235A)
heavy: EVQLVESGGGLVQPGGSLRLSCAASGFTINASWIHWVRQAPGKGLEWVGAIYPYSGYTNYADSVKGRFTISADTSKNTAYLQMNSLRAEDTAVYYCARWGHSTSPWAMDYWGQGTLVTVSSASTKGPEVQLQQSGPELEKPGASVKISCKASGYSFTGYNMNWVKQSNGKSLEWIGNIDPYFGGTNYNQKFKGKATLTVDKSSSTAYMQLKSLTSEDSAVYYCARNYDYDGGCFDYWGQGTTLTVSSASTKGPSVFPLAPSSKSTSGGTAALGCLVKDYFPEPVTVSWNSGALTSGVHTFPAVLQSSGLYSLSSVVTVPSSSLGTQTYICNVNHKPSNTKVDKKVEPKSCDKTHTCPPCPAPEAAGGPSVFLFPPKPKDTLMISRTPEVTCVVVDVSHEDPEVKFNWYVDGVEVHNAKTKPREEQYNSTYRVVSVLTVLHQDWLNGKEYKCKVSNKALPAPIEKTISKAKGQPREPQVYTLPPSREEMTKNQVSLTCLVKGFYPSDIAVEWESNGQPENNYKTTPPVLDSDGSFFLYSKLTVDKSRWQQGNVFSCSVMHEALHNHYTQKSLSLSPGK
light: DIQMTQSPSSLSASVGDRVTITCRASQVIRRSLAWYQQKPGKAPKLLIYAASNLASGVPSRFSGSGSGTDFTLTISSLQPEDFATYYCQQSNTSPLTFGQGTKVEIKRTVAAPSVFIFPPQAVVTQESALTTSPGETVTLTCRSSTGAVTTSNYANWVQEKPDHLFTGLIGGTNNRAPGVPARFSGSLIGDKAALTITGAQTEDEAIYFCALWYSNHWVFGGGTKLTVLGQPKAAPSVTLFPPSSEELQANKATLVCLISDFYPGAVTVAWKADSSPVKAGVETTTPSKQSNNKYAASSYLSLTPEQWKSHRSYSCQVTHEGSTVEKTVAPTECS
notes: Outer AB071 (VEGF), inner AB073 (DLL4); HC linker short, LC linker long; also called DVD-Ig DVD534
B8: DVD452 (bispecific antibody, human IgG1, kappa, L234A L235A)
heavy: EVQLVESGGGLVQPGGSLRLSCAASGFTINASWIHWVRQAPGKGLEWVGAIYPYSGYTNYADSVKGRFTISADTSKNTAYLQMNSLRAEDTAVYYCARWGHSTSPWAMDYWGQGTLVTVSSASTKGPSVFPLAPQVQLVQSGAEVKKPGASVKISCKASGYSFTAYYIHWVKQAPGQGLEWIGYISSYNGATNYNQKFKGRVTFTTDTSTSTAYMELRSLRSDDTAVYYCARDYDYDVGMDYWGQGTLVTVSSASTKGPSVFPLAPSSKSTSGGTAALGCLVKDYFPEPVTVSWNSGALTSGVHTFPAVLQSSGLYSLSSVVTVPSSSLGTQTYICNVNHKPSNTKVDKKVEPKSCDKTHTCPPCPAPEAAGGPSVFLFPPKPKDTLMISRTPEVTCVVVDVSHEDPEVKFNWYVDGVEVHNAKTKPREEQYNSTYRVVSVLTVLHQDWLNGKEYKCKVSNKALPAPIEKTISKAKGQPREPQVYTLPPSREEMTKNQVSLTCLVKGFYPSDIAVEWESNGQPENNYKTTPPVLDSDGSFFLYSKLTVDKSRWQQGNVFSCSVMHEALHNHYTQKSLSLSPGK
light: DIQMTQSPSSLSASVGDRVTITCRASQVIRRSLAWYQQKPGKAPKLLIYAASNLASGVPSRFSGSGSGTDFTLTISSLQPEDFATYYCQQSNTSPLTFGQGTKVEIKRTVAAPSVFIFPPDIVMTQSPDSLAVSLGERATISCRASESVDNYGISFMKWFQQKPGQPPKLLIYAASNQGSGVPDRFSGSGSGTDFTLTISSLQAEDVAVYYCQQSKEVPWTFGGGTKVEIKRTVAAPSVFIFPPSDEQLKSGTASVVCLLNNFYPREAKVQWKVDNALQSGNSQESVTEQDSKDSTYSLSSTLTLSKADYEKHKVYACEVTHQGLSSPVTKSFNRGEC
notes: Outer AB071 (VEGF), inner AB069 (DLL4); HC linker long, LC linker long; also called DVD-Ig DVD452
B9: DVD464 (bispecific antibody, human IgG1, kappa)
heavy: not shown
light: DIQMTQSPSSLSASVGDRVTITCRASQVIRRSLAWYQQKPGKAPKLLIYAASNLASGVPSRFSGSGSGTDFTLTISSLQPEDFATYYCQQSNTSPLTFGQGTKVEIKRTVAAPSVFIFPPDIVMTQSPDSLAVSLGERATISCRASESVDNYGISFMKWFQQKPGQPPKLLIYAASNQGSGVPDRFSGSGSGTDFTLTISSLQAEDVAVYYCQQSKEVPWTFGGGTKVEIKRTVAAPSVFIFPPSDEQLKSGTASVVCLLNNFYPREAKVQWKVDNALQSGNSQESVTEQDSKDSTYSLSSTLTLSKADYEKHKVYACEVTHQGLSSPVTKSFNRGEC
notes: Outer AB071 (VEGF), inner AB069 (DLL4); HC linker short, LC linker long; also called DVD-Ig DVD464
B10: DVD480 (bispecific antibody, human IgG1, kappa)
heavy: not shown
light: DIQMTQSPSSLSASVGDRVTITCRASQVIRRSLAWYQQKPGKAPKLLIYAASNLASGVPSRFSGSGSGTDFTLTISSLQPEDFATYYCQQSNTSPLTFGQGTKVEIKRTVAAPDIQMTQSPSSLSASVGDRVTITCRASQDVSTAVAWYQQKPGKAPKLLIYSASFLYSGVPSRFSGSGSGTDFTLTISSLQPEDFATTYYCQQSYTGTVTFGQGTKVEIKRTVAAPSVFIFPPSDEQLKSGTASVVCLLNNFYPREAKVQWKVDNALQSGNSQESVTEQDSKDSTYSLSSTLTLSKADYEKHKVYACEVTHQGLSSPVTKSFNRGEC
notes: Outer AB071 (VEGF), inner AB015 (DLL4); HC linker long, LC linker short; also called DVD-Ig DVD480
B11: DVD446 (bispecific antibody, human IgG1, kappa)
heavy: not shown
light: DIQMTQSPSSLSASVGDRVTITCRASQVIRRSLAWYQQKPGKAPKLLIYAASNLASGVPSRFSGSGSGTDFTLTISSLQPEDFATYYCQQSNTSPLTFGQGTKVEIKRTVAAPDIVMTQSPDSLAVSLGERATISCRASESVDNYGISFMKWFQQKPGQPPKLLIYAASNQGSGVPDRFSGSGSGTDFTLTISSLQAEDVAVYYCQQSKEVPWTFGGGTKVEIKRTVAAPSVFIFPPSDEQLKSGTASVVCLLNNFYPREAKVQWKVDNALQSGNSQESVTEQDSKDSTYSLSSTLTLSKADYEKHKVYACEVTHQGLSSPVTKSFNRGEC
notes: Outer AB071 (VEGF), inner AB069 (DLL4); HC linker short, LC linker short; also called DVD-Ig DVD446
B12: DVD458 (bispecific antibody, human IgG1, kappa, L234A L235A)
heavy: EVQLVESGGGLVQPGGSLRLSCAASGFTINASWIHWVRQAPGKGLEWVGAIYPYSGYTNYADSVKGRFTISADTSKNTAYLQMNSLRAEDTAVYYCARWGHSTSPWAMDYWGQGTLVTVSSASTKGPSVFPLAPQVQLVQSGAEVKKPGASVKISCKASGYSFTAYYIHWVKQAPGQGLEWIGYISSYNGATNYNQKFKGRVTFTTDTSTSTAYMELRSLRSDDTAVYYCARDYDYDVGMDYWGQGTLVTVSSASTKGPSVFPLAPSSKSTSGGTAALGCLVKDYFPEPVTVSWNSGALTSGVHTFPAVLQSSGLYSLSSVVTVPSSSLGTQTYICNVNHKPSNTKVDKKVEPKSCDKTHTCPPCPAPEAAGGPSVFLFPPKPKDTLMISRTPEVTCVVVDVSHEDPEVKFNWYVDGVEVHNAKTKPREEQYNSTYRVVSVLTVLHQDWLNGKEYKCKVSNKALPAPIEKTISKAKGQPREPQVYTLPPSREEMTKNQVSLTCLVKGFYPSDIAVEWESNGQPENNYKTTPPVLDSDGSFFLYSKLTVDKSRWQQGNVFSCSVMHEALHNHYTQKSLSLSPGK
light: DIQMTQSPSSLSASVGDRVTITCRASQVIRRSLAWYQQKPGKAPKLLIYAASNLASGVPSRFSGSGSGTDFTLTISSLQPEDFATYYCQQSNTSPLTFGQGTKVEIKRTVAAPDIVMTQSPDSLAVSLGERATISCRASESVDNYGISFMKWFQQKPGQPPKLLIYAASNQGSGVPDRFSGSGSGTDFTLTISSLQAEDVAVYYCQQSKEVPWTFGGGTKVEIKRTVAAPSVFIFPPSDEQLKSGTASVVCLLNNFYPREAKVQWKVDNALQSGNSQESVTEQDSKDSTYSLSSTLTLSKADYEKHKVYACEVTHQGLSSPVTKSFNRGEC
notes: Outer AB071 (VEGF), inner AB069 (DLL4); HC linker long, LC linker short; also called DVD-Ig DVD458
B13: DVD492 (bispecific antibody, human IgG1, kappa)
heavy: not shown
light: DIQMTQSPSSLSASVGDRVTITCRASQVIRRSLAWYQQKPGKAPKLLIYAASNLASGVPSRFSGSGSGTDFTLTISSLQPEDFATYYCQQSNTSPLTFGQGTKVEIKRTVAAPDIQMTQSSSYLSVSLGGRVTITCKASDHINNWLAWYQQKPGNAPRLLISGATSLETGVPSRFSGSGSGKDYTLSITSLQTEDVATYYCQQYWSIPLTFGAGTKLELKRTVAAPSVFIFPPSDEQLKSGTASVVCLLNNFYPREAKVQWKVDNALQSGNSQESVTEQDSKDSTYSLSSTLTLSKADYEKHKVYACEVTHQGLSSPVTKSFNRGEC
notes: Outer AB071 (VEGF), inner AB072 (DLL4); HC linker short, LC linker short; also called DVD-Ig DVD492
B14: DVD504 (bispecific antibody, human IgG1, kappa)
heavy: not shown
light: DIQMTQSPSSLSASVGDRVTITCRASQVIRRSLAWYQQKPGKAPKLLIYAASNLASGVPSRFSGSGSGTDFTLTISSLQPEDFATYYCQQSNTSPLTFGQGTKVEIKRTVAAPDIQMTQSSSYLSVSLGGRVTITCKASDHINNWLAWYQQKPGNAPRLLISGATSLETGVPSRFSGSGSGKDYTLSITSLQTEDVATYYCQQYWSIPLTFGAGTKLELKRTVAAPSVFIFPPSDEQLKSGTASVVCLLNNFYPREAKVQWKVDNALQSGNSQESVTEQDSKDSTYSLSSTLTLSKADYEKHKVYACEVTHQGLSSPVTKSFNRGEC
notes: Outer AB071 (VEGF), inner AB072 (DLL4); HC linker long, LC linker short; also called DVD-Ig DVD504

For this experiment, the target named is T1, DLL4 ECD His tag (UniProt Q9NR61 27-529, limits assumed).
T1 construct: extracellular domain; also called DLL ECD His tag
In words: SPR (Biacore), DVD-Ig captured, DLL4 as analyte.
As for B1, binding was characterised by a dissociation constant (Kd) of 1.04 nM. That is a single-digit nanomolar value.
In turn, B2 gave a dissociation constant (Kd) of 2.13 nM.
For the molecule B3, the affinity, expressed as Kd, was 1.45 nM; the koff is 9.36e-05 s⁻¹; the association rate constant (kon) worked out at 64600 M⁻¹ s⁻¹.
The corresponding values for B4 are 4.99 nM, 0.000583 s⁻¹ and 117000 M⁻¹ s⁻¹.
The like results for B5 were, in that order, 4.81 nM, 0.00152 s⁻¹ and 316000 M⁻¹ s⁻¹.
The like results for B6 were, in that order, 10.5 nM, 0.00121 s⁻¹ and 115000 M⁻¹ s⁻¹.
Turning to B7, the equilibrium dissociation constant (Kd) worked out at 5.78 nM, the koff was determined as 0.002 s⁻¹ and the on-rate constant (kon) was determined as 346000 M⁻¹ s⁻¹.
The like results for B8 were, in that order, 9.3 nM, 0.00022 s⁻¹ and 23700 M⁻¹ s⁻¹.
The like results for B9 were, in that order, 5.53 nM, 0.000182 s⁻¹ and 32800 M⁻¹ s⁻¹.
The like results for B10 were, in that order, 3.38 nM, 0.000179 s⁻¹ and 53000 M⁻¹ s⁻¹.
Take B11: binding was put at a Kd of 5.81 nM, the koff stood at 0.000169 s⁻¹ and the kon is 29100 M⁻¹ s⁻¹.
In the case of B12, the Kd is 16.2 nM, the dissociation rate constant (koff) was 0.000261 s⁻¹ and the on-rate constant (kon) was found to be 16100 M⁻¹ s⁻¹.
The like results for B13 were, in that order, 1.07 nM, 8.35e-05 s⁻¹ and 78200 M⁻¹ s⁻¹.
The corresponding values for B14 are 1.26 nM, 7.32e-05 s⁻¹ and 58100 M⁻¹ s⁻¹.

For orientation: Kd means the equilibrium constant for the complex coming apart. Low readings indicate a tighter complex, high ones a looser complex. One may read the koff as the rate constant with which the complex falls apart. Lower therefore signals slow dissociation. By kon is commonly meant a measure of how fast the partners come together.
